The term stoichiometry N denotes the number of molecules, sites or subunits per partner or assembly.

Consider one protein from PMC6726451 (Science Advances, 2019).

The data set “SEC” concerns the molecule itself. The data set can be described thus: SEC. (In gel filtration, larger molecules generally elute earlier.)
The data set “SEC-MALS” deals with the molecule itself. Nature of the data set: SEC-MALS.

B1: caseinolytic protease ClpP from Thermus thermophilus (TtClpP) (enzyme)
chain: not shown
In the case of B1, the “stoichiometry N” value in “SEC” amounted to 7; in “SEC-MALS” it was 14.
